Measured values reported in the DeepSol protein solubility set.

Assay: soluble on expression in E. coli; label from the status in PepcDB or PDB records

Sequence	soluble on expression in E. coli
MSLKIFPSSSIKKLDAYTIEHEPIASIDLMERAAQALTKAITERWDITTPVTVFAGPGNNGGDALAVARMLAEKEYKVEAYLFNPKGELSADCQTNKELVEMMDNVKFSEVSTQFVPPTLTMDHLVVDGLFGSGLNKPLSGGFAAVVKYINASPATVVAIDIPSGLMGEENTFNVKANIIRAQLTLSLQLPKLAFLFAENSEFVGEWKLLDINLSREAIEETESNYALLEAEEIHALIKPRNTFSHKGNFGHALLIAGSYGMAGASILAARACMRSGVGLLTVHAPIRNNDILQISVPEAIIESDASDTYFACPTDTDDYQAVGIGPGIGRSEETEAALLEQLSGCQTPLVLDADALNILANHRHALTTLPKGSILTPHPKELERMVGKCQNSYERLMKACELARTAKVHIILKGAYSAIITPSGKCYFNSTGNPGMATAGSGDVLTGVVLALLAQGYPAEEAAKIGTYVHGLAGDFARKKQGVISMTAGDIISNLPLAWRLVSEGHHHHHH	soluble
KIRDELRAERTFIDQALDSLADIFYVIDSAGTVQRCNEQFATLAGYADEKISDLDALSLFPEEEREGVSEAIEEALTTGQSTIEAEFRTAAGKRVPHEFTADRLTDQDGDLIGLVGTGRDIS	not soluble
MIVMTKQQYQEILEHSRNALPNEACGLLGGRIENGVKYVEKVYLLRNIDESPEHFSMNPKEQFAAVKDMRNNGWELLGNFHSHPATPSRPSEEDIRLAFDPKASYLILSLKDDTPVLKSFNISSGQATQEELSIVGEEALEHHHHHH	soluble
MRKSKRERQRLLQETIRENPFITDEELAEKFSVSVQTIRLDRLELSIPELRERIKNVARQSFADKVRALPLEEVIGDIIDIEPDASAISIFDVKEEHVFRRTRIARGHHLFAQANSLAVAVIHDELALTAKATIRFVRQVKEGERVVAKAKVTGKTAHGRTIVEVNSYVGQELVFSGTFEMYRSNIEKKDGDSNEYRG	not soluble
MLVNGKWTADWQPVQKADDHGRFVRQVSSFRNWITPDGSAGPTGTGGFAAEAGRYRLYVALICPWASRTLMARRLKGLDGLIPVTVVNPVMGTQGWEFGGHDDAEEDPLFGARHLHEIYTRAEPQFTGRATVPVLWDMKRDAMVNNESADILRMFDTAFEGLAPSDLRLYPAALAGEIDALNAQVYDRLNNGVYKAGFASTQEAYDEAVAGVFEMLDHLEYRLTGDYIFGGALTETDIRIFVTLIRFDAAYHGLFKTNRRQIADYPRLWAYMRRILARPGVRETVNMDHITRGYYSIKALNPSRIRPVGPAHIEAALRETAAGI	not soluble
MSLTTIKEIAQKSGYSPATVSRLLNNDPNLSITADTKNKILEIANKLGYWKDHQEKEIKPTIALLYRTNHKEQLQDEYFTSLKQALVETVKQKSMKMKTFYNVKDLIENASLFQGFIGVGAAPIENAELLELHKVLPNGVFVDTNPAPELFDSIRPNLSLTVKNAIDLFIKNDCKTIGFIGGVGPKHDHIQENDPRAVAFAEYMKVRNKDTNYMFVSGPFSVENGYELGKEVVKECEDNLPDAFLIASDTLSVGVLQAFNEENVNVPKDTAILSINNSNVVKYVSPPLSSYNINQQEMIDLALTMLTNLIIQPDRAHIDVNMNTDLVVRKSFVPKGEGHHHHHH	soluble
GSHMKEPKLSPKQERFIEEYFINDMNATKAAIAAGYSKNSASAIGAENLQKPAIRARIDARLK	soluble
MGSDKIHHHHHHMLLNLFNEMRAAKVPVSVRELLDLIDALKHRVVFADMDEFYYLARTIMVKDERHFDKFDRAFGAYFKGLEKLDDHLKALIPEEWLRKEFERLLTDEEKAQIQSLGGLDKLIEEFKKRLEEQKERHAGGNKWIGTGGTSPFGSGGFNPEGIRVGDAGKRQGKAAKVWDQREYKNLDDQVELGTRNIKIALRRLRKFAREGAAEELDIDGTIDHTAKDAGLLNIQMRPERRNTVKLLLLLDIGGSMDAHVKVCEELFSACKTEFKHLEYFYFHNFIYESVWKNNLRRSSERTATFDLLHKYGPDYKVVFVGDAAMAPYEITQAGGSVEHWNEEAGYVWMQRFMEKYKKLIWINPYPKDTWNYTASTGLVRELVKEQMYPLTLSGLEEGMRFLSRG	not soluble
MGEWEIIDIGPFTQNLGKFAVDEENKIGQYGRLTFNKVIRPCMKKTIYENEGFREIKGYEYQLYVYASDKLFRADISEDYKTRGRKLLRFNGPVPPP	soluble
MSLKPTIYDIAKKANVSKSTVSRVLNNQPNISDKAKASVLQAIKELNYEPSKIARGLSGNGFDAILALSHRTSHTTYGNPFFSDVIQSISAVSEQNNFDLILQTAKTPEEELEKCAKKIQEKMIRGIIILSSTMDETLLFELDQYNIPIVVIGKVGNDYTNIYSVDTDNFQDSYDLVETLIKNGHRHIGCLHAPTEVYVSNDRLNGYRQCLFDHHLDIRNEWIIDGGFRLEDSMAAMNDLMKLRERPTAIFSTDALKSLSIYKVAEQSGKQIPDDLSIAGFSDPLLSSLFSPQLTRIDIPTNQLGIKATELLFQLIHHQYPEEKRIILSTEITLTDSIEGHHHHHH	not soluble
MSLSRLPLIGVTACSRQIGLHAYHISGDEYVHAVASAAQGVPVIIPSMAELLSPSDILDGLDGILFTGSPSNIEPFHYQGPASAPGTAHDSARDAATLPLLSAAVASGVPVLGICRGFQEMNVALGGSLHQNVQQVQPFMDHRHAEQPGQPLDAWYAPAHDLHIKAGGVLAGLGLPERIQVNSIHAQGVERLAPGLRVEALAPDGLVEAVSVEASKAFALGVQWHPEWQVSCNPHYLAIFQAFGDACRKRARQRDAEASHKEGHHHHHH	soluble
KASEEGIGGRKTCEYYPCHFEGQNCTFCFCPFYPCENEKTGGKWIQSSRGGRVWSCVDCHLVHKKEIAQKILDCLMHEGDTDELVKVAWKEVMEPIL	not soluble
MSWLRTELWTAEVVYTGFGTPMLRGALAVQGGFVVGQGSLEELRARFPEGEVVHKGLALLPPPVNAHTHLDLSLLPLYRGPFAGFLSHVVAHRERRGLEGAKRGLEELLASGVGAFADIVFKDEVMDFLLQESPLPGVAFYEVFAPEPSLAEEVYRAVRRKVEAWRRREGKVKVGLSPHAPYSVSPPLLKRLAEWARAEGLPLMVHAAESPEEVAFLLRGEGPLREVYGRFAKTPWTPPGTTPVRHLHALGVLGPTTLLVHGVQVDEEEVGLLAETGTKVVLCPRSNRNLEVGEAPLALYAKHGVELALGTDSRGSSPDLDVKNEARFLWGRAEPRLLVRALTRGGYRALGLPTPRLTRGTPLSLVHFL	soluble
ETGDIVETATGAGSFTTLLTAAEAAGLVDTLKGDGPFTVFAPTDAAFAALPEGTVEDLLKPENKEKLTEILTYHVVPGEVMSSDLTEGMTAETVEGGALTVTLEGGPKVNGVSISQPDVDASNGVIHVIDGVLMPGA	soluble
MSLKIWGRKNSSNVRKALWIAHELGLDFESIDAGGAFGVVNEPHYRARNPNGLVPMLEDGDLTLWESNTIVRYLCAEYGTEQGWYLADPRQRALADKWMDWTTSSFATPFRPLFWGLLRTPEDQRDWVAINAAHKQCAQLLAIADETLASQPYLSGDQIGMGDIPLGSFIYAWFELPIERPDMYHLQAWYERLKQRPAYQAAVMTALTEGHHHHHH	soluble
MCGKFTLFSEFDDIIEQFNIDQFLPEGEYHPSYNVAPSQNILTIINDGSNNRLGKLRWGLIPPCAKDEKIGYKMINARAETLAEKPSFRKPLGSKRCIIPADSFYEWKRLDPKTKIPMRIKLKSSNLFAFAGLYEKWNTLEGNLLYTCTIITIKPSELMEDIHDRMPVILTDENKKEWLNPKNTDPDYLQSLLLPYDADDMEAYQVSSLVNSPELIESHLEHHHHHH	not soluble
MGSDKIHHHHHHMMIKDLKAHYQLLYAQSGDSPAAVQYPTHDSQVVRFSILSHGIDKTCNIIDLGCGLADMLPYLRQNGFTGKYLGCDFVPEFIELAKGKYGEDLNAKFMEFNILQDEIPTGYDYVLISGIFNNKIKNNQEFIELALKESMAKVNIGVVFNALSDYVQYQDETLFYISPLSLFDYCKRNITPYVTLKHDYLTKPGGFPYEFTMSLRHKEAS	not soluble
MGSDKIHHHHHHMRNAHDILDNIVYDFANATGLGSVAVDLNGKEISPWYNFTSFCQQVRQIAAYHPYCQQCDRCGGFESTKAKQIQCYRCHAGLVDFSIPIFINGNLTGFVSCGQARVAENLPLPKIVENDKNLPTESKLIELYHEVPELSLMKIKSAAQLLNLIIENYLSKEYNLRIVKNVSPVKNQKLETLGRHQATMEMILNHINQNFSDNLNLEQMASKANLSMFYFSRTFKELTGTGFTAYLINKRMTEAHCLLEQTNWSIEKIARSVGYNDVHYFSRLFKKTFNRSPSEFRNHSSGFSM	not soluble
FLILGTLFSSSLYADIDNAPLHALAKHQGFFFFFSSSCPHCQRFAPTLKRLSQHYGFSVVAISVDGGFLPSFPDAVMNEGQTKVFQVSVYPSLFLINPKSQVASLVTEGTIDEGELTNRLLKI	not soluble
MGSDKIHHHHHHMALMTNKTRALLIGGHGKVALLATPMLIDASVQVTSMYRNPDHRSEIEALGATTLERDVTTLSVEDWADLLKDFDVVVWSAGNGGKNGADATYAIDRDAAIASIDGAASLGEKAPRYIMVSYIGSSTHTIDPSASFYPYAESKKAADEHLSSTNLDYLILAPAALTLDEVNGVEVIADTNEAAAGRTTSRVLVAEVITEFVVRDFPQTRVLPFVDGESPVSSIS	not soluble
MVIATDDLETTCPNCNGSGREEPEPCPKCLGKGVILTAQGSTLLHFIKKHIHE	soluble
MAHHHHHHMHLKIVCLSDEVREMYKNHKTHHEGDSGLDLFIVKDEVLKPKSTTFVKLGIKAIALQYKSNYYYKCEKSENKKKDDDKSNIVNTSFLLFPRSSISKTPLRLANSIGLIDAGYRGEIIAALDNTSDQEYHIKKNDKLVQLVSFTGEPLSFELVEELDETSRGEGGFGSTSNNKY	soluble
MGSDKIHHHHHHMINQERLVNEFMELVQVDSETKFEAEICKVLTKKFTDLGVEVFEDDTMAVTGHGAGNLICTLPATKDGVDTIYFTSHMDTVVPGNGIKPSIKDGYIVSDGTTILGADDKAGLASMFEAIRVLKEKNIPHGTIEFIITVGEESGLVGAKALDRERITAKYGYALDSDGKVGEIVVAAPTQAKVNAIIRGKTAHAGVAPEKGVSAITIAAKAIAKMPLGRIDSETTANIGRFEGGTQTNIVCDHVQIFAEARSLINEKMEAQVAKMKEAFETTAKEMGGHADVEVNVMYPGFKFADGDHVVEVAKRAAEKIGRTPSLHQSGGGSDANVIAGHGIPTVNLAVGYEEIHTTNEKIPVEELAKTAELVVAIIEEVAK	not soluble
GPGSMYRLFSCCKTNELKRLFSHALDASIKNEGVAQQRKRQVLPRRHRKLHKLTIREENEEGLRDFLPPKPVVPAGWKLEHVKGSNRFDLRKSVEIRDCGKEHLHAVAMMEVKEYEGTYRMDNGEREEEEYLFFTLFVQKNRFPGALEFGLTSIDMELVMDSLAIHNNREELEDAYGALSVSTSRNGTSNRIIEKSNLSCRSCRDNRYRGPMLSELDDDFSDEILDYLDERGVNNGFAEYMMAQAHFFEQEEYINWIRLLRQFAQ	not soluble
